Like-named read-outs stand apart in the source and are kept apart here.
Assays:
[1] = target: JetAB complex (JetA2B4), full-length JetA and JetB (Pseudomonas aeruginosa PA14); assay: SEC-MALS
[2] = target: JetD (Wadjet nuclease subunit, P. aeruginosa PA14) (Pseudomonas aeruginosa PA14); assay: SEC + SEC-MALS
[3] = target: JetAB complex (JetA2B4), full-length JetA and JetB (Pseudomonas aeruginosa PA14); assay: SEC + SEC-MALS
[4] = target: JetC (Wadjet SMC ATPase subunit, P. aeruginosa PA14), tagless wild type (Pseudomonas aeruginosa PA14); assay: SEC + SEC-MALS
[5] = target: JetAB complex (JetA2B4), full-length JetA and JetB (Pseudomonas aeruginosa PA14); assay: SEC + SEC-MALS; remark: listed apart in the source

Substance: JetC^head (JetC^E1022Q,L783A 1-284-[…]-781-1101) (domain or fragment)
- stoichiometry N (JetC^head per JetA2B4) [1]: 2

Substance: JetD (Wadjet nuclease subunit, P. aeruginosa PA14) (natural protein)
- stoichiometry N [2]: 2

Substance: JetC (Wadjet SMC ATPase subunit, P. aeruginosa PA14), tagless wild type (natural protein)
- stoichiometry N (JetC per JetA2B4) [3]: 2
- stoichiometry N [4]: 2
- stoichiometry N (JetC per JetA2B4) [5]: 4

From PMC9637719
